# T1: Ume6p (Saccharomyces cerevisiae, UniProt P39001 1-836)
# T1 sequence: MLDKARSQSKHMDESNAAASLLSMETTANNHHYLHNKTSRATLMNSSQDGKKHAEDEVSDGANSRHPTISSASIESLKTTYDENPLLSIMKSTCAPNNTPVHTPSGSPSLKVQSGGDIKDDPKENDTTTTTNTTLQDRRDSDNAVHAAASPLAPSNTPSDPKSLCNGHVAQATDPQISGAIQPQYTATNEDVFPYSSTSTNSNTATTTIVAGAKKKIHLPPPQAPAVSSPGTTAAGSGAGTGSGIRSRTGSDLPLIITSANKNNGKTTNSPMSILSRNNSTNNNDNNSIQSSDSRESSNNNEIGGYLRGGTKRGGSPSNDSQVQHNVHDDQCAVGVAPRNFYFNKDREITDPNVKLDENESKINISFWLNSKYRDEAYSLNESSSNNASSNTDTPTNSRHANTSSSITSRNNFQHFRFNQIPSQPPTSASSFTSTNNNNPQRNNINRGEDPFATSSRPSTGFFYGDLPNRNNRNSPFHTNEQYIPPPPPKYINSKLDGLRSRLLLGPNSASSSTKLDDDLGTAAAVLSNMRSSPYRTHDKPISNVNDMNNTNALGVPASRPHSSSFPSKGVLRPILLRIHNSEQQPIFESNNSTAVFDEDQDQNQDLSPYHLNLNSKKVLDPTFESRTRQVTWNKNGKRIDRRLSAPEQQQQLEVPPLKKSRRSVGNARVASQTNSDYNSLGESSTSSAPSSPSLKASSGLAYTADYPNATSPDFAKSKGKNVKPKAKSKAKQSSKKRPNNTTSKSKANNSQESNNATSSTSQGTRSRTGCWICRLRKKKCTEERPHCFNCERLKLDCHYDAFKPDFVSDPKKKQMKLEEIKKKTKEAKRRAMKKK
# Target: T1, Ume6p
# Assay: EMSA; EMSA buffer and temperature not given in material; protein dialyzed in 10 mM sodium phosphate pH 7.4, 50 mM NaCl, 10 uM ZnCl2
# Details: protein: recombinant; tags: N-terminal 6xHis (pET14b); label: Cy5 on forward oligo
binder,measurement,value
"SPO13 URS1 probe, unmethylated (Spo13-Cy5-F/Spo13-R) (dsDNA) DNA 1: TTAATTAGGAGTATATTGAGAAATAGCCGCCGACAAAAAGGAAGTCTCATAAAAGT DNA 2: ACTTTTATGAGACTTCCTTTTTGTCGGCGGCTATTTCTCAATATACTCCTAATTAA",binding result,binds

# Reference: article PMC8163762, “Impact of DNA methylation on 3D genome structure”
